Laboratory results from publication PMC10787225 (Computational and Structural Biotechnology Journal, 2023).

Legend:
[1] = Solubility by visible precipitation upon dissolution of lyophilized peptide; settings: aqueous buffer, µM concentrations, neutral pH; visual
Experimental: (§1) Fig. 4 Test set of eight protein segments. (A) List of the investigated peptides. Underlined stretches in the peptide sequences correspond to the predicted amyloidogenic β-hairpins. A peptide was considered ‘soluble’ when no visible precipitation occurred upon dissolution of the lyophilized peptide in 20 mM NaPi, pH 7.4, 50 mM NaCl, to a final concentration of 20 µM. […] (B) Conformations of investigated segments (red) in the context of their source proteins.

[2] = Thioflavin T (ThT) aggregation assay; assay type: physicochemical; settings: for Shape of ThT time course / kind of aggregates: 20–550 µM peptide; for Shape of ThT time course / kind of aggregates / ThT / ThT fluorescence time course: 20 mM NaPi, pH 7.4, 50 mM NaCl, 37 °C; for ThT: peptide 20–550 µM, up to 85 h, 300 rpm, glass bead; for ThT / ThT fluorescence time course: 25 µM ThT, triplicate; for ThT fluorescence of peptide alone: 50 mM Tris, pH 8.5, 37 °C, 40 µM ThT
Experimental: All ThT aggregation assays were done in Greiner 96-well half-area, clear bottom, low-binding plates. The measurements themselves were done in a BMG CLARIOstar plate reader at 37 °C and 300 rpm shaking in orbital mode with one glass bead (0.75–1 mm, Roth) per well. Wells with samples were always surrounded by wells filled with liquid, either other samples or 150 μl water, to counter potential artefacts due to evaporation. […] Final concentrations of 25 µM ThT and 0.04% sodium azide (NaN3) were added. The plate was sealed with sealing tape and put into the plate reader, heated to 37 °C, and ThT fluorescence was read in 1000 cycles of 300 s each using bottom optics with excitation at 448 nm (10 nm bandwidth) and emission at 482 nm (10 nm bandwidth). […] Samples contained 40 µM ThT and 0.04% NaN3.
as §1

β-wrapin AS10 [3] = assay: 1H-15N HSQC NMR detection of β-hairpin formation upon AS10 binding; settings: 25 °C; for NMR signature of β-hairpin folding coupled to AS10 binding (1H–15N HSQC of 15N-AS10): 100 µM 15N-AS10 mixed with 20% molar excess of peptide, pH 7.4; for NMR β-hairpin: 100 µM 15N-AS10 with 20% molar excess of peptide, 20 mM sodium phosphate, pH 7.4, 50 mM NaCl
Experimental: The NMR spectra were acquired at 25 °C using VNMRS instruments (Varian) at proton frequencies of 800 and 900 MHz, each equipped with a cryogenically cooled Z-axis pulse-field-gradient (PFG) triple resonance probe. The sample buffer was 20 mM sodium phosphate, pH 7.4, 50 mM NaCl, supplemented with 10% D2O. For detection of complex formation, samples contained 100 μM ^15N-labeled AS10, expressed and purified as described, [43], and a 20% excess of the unlabeled peptide. For determination of β-sheet registries, NMR samples contained ^13C^15N-labeled fusion constructs in concentrations between 360–700 μM. Backbone assignments were obtained using BEST-TROSY experiments. Nuclear Overhauser effect (NOE) based distance restraints for β-sheet registry determination were derived from 3D (^1H–^1H-^15N)-NOESY-HSQC (120 ms mixing time) and (^1H–^13Cali-^1H)-HSQC-NOESY (100 ms mixing time) experiments. NMR data were processed using NMRPipe and analyzed with CcpNMR [50].
To test for β-hairpin formation in the peptides upon binding to AS10 we performed NMR spectroscopy. ^1H–^15N HSQC NMR spectroscopy using ^15N-labeled AS10 (^15N-AS10) and unlabeled binding partner leads to characteristic changes upon β-hairpin folding coupled to binding. These include a great increase in resonance dispersion, appearance of four amide proton resonances in the glycine region (^15N chemical shift <110 ppm) stemming from Gly-13 and Gly-14 in the two AS10-subunits, as well as appearance of amide proton resonances with shift values typical for β-sheet conformation (high ^1H and high ^15N chemical shifts).

[4] = Atomic force microscopy (AFM) of samples at the end of ThT aggregation assays; assay type: physicochemical; settings: for AFM aggregate morphology: end of ThT aggregation assay in 20 mM NaPi, pH 7.4, 50 mM NaCl, dried on mica; for AFM aggregate morphology of individual peptide: end of ThT assay at moderate peptide concentrations without ThT fluorescence, 50 mM Tris, pH 8.5
Experimental: (§2) For AFM imaging, 2 μl samples were taken out of the wells at the end of the ThT aggregation assays, put onto a freshly cleaved muscovite mica surface and dried during incubation for 10 min under the clean bench. Subsequently, the samples were washed with 100 μl ddH2O in three steps and dried with a stream of N2 gas. Imaging was performed in intermittent contact mode (AC mode) in a JPK NanoWizard 3 atomic force microscope using a silicon cantilever with silicon tip (OMCL-AC160TS-R3, Olympus) with a typical tip radius of 9 ± 2 nm, a force constant of 26 N/m and resonance frequency around 300 kHz. The images were processed using JPK DP Data Processing Software (version spm-5.0.84).

β-wrapin AS10 [5] = assay: Isothermal titration calorimetry (ITC) of peptide binding to AS10; settings: 30 °C, 30 µM AS10 in cell, peptide titrated from syringe, 20 mM sodium phosphate, pH 7.4, 50 mM NaCl, 1:1 binding model
Experimental: ITC was performed at 30 °C using a Microcal iTC200 calorimeter (GE Healthcare). AS10 was filled into the cell at a concentration of 30 µM in 20 mM sodium phosphate, pH 7.4, 50 mM NaCl. Peptides were titrated from the syringe in approximately 10-fold higher concentrations. Heats of post-saturation injections were averaged and subtracted from each injection to correct for heats of dilution and mixing. Dissociation constants were obtained from a nonlinear least-squares fit to a 1:1 binding model using MicroCal Origin.

β-wrapin AS10 [6] = assay: ITC; 30 µM AS10 in the cell, peptides titrated from the syringe at approximately 10-fold higher concentrations; 30 °C; 20 mM sodium phosphate, pH 7.4, 50 mM NaCl; fit to a 1:1 binding model
PAP(248−286) = assay: ThT aggregation assay and AFM of PAP(248−286) in presence of added peptide; assay type: biochemical, human; settings: 500 µM PAP(248−286), added peptide 25–100 µM, 50 mM Tris, pH 8.5, 37 °C, 40 µM ThT
Experimental: (§3) All ThT aggregation assays were done in Greiner 96-well half-area, clear bottom, low-binding plates. The measurements themselves were done in a BMG CLARIOstar plate reader at 37 °C and 300 rpm shaking in orbital mode with one glass bead (0.75–1 mm, Roth) per well. Wells with samples were always surrounded by wells filled with liquid, either other samples or 150 μl water, to counter potential artefacts due to evaporation. […] Final concentrations of 25 µM ThT and 0.04% sodium azide (NaN3) were added. The plate was sealed with sealing tape and put into the plate reader, heated to 37 °C, and ThT fluorescence was read in 1000 cycles of 300 s each using bottom optics with excitation at 448 nm (10 nm bandwidth) and emission at 482 nm (10 nm bandwidth). […] PAP(248−286) and SEM1(86−107) were kept at constant concentrations of 500 and 300 µM, respectively. […] Samples contained 40 µM ThT and 0.04% NaN3.
as §2

SEM1(86−107) = assay: ThT aggregation assay and AFM of SEM1(86−107) in presence of added peptide; assay type: biochemical, human; settings: 300 µM SEM1(86−107), added peptide 25–100 µM, 50 mM Tris, pH 8.5, 37 °C, 40 µM ThT
Experimental: as §3, §2

[7] = peptide alone 25–100 µM (up to 100 µM)

3-PGDH(298−319): synthetic peptide of predicted β-hairpin-forming amyloidogenic segment 298−319 of 3-PGDH (EIAVQFVDMVKGKSLTGVVNAQ; UniProt O43175 298-319, looked up, fragment)
Precipitate formation upon dissolution [1]: immediate precipitate formation upon dissolution | Shape of ThT time course / kind of aggregates [2]: can form both ThT-positive as well as ThT-negative aggregates | ThT [2]: + | NMR signature of β-hairpin folding coupled to AS10 binding (1H–15N HSQC of 15N-AS10) (β-wrapin AS10 [3]): no change

CYP2W1(176−204): synthetic peptide of predicted β-hairpin-forming amyloidogenic segment 176−204 of CYP2W1 (SNITFALLFGRRFDYRDPVFVSLLGLIDE)
AFM aggregate morphology [4]: fibrillar aggregates confirming amyloid formation were detected | Precipitate formation upon dissolution [1]: immediate precipitation | Shape of ThT time course / kind of aggregates [2]: ThT fluorescence was high from the beginning | ThT [2]: + | NMR signature of β-hairpin folding coupled to AS10 binding (1H–15N HSQC of 15N-AS10) (β-wrapin AS10 [3]): signature was also observed | NMR β-hairpin (β-wrapin AS10 [3]): +

MIC26(153−178): synthetic peptide of predicted β-hairpin-forming amyloidogenic segment 153−178 of MIC26 (QQAIVFAQVSGERLYDWGLRGYIVIE; UniProt Q9BUR5 153-178, looked up, fragment)
AFM aggregate morphology [4]: fibrillar aggregates confirming amyloid formation were detected | Precipitate formation upon dissolution [1]: immediate precipitation | Shape of ThT time course / kind of aggregates [2]: ThT fluorescence was high from the beginning | ThT [2]: + | NMR signature of β-hairpin folding coupled to AS10 binding (1H–15N HSQC of 15N-AS10) (β-wrapin AS10 [3]): no change

NBPF1(928−946): synthetic peptide of predicted β-hairpin-forming amyloidogenic segment 928−946 of NBPF1 (RSAFYILEQQRVGWALDMD)
ThT fluorescence time course ([2]; 20–25 µM peptide): no increase in fluorescence intensity was detected | ThT fluorescence time course ([2]; peptide increased to 500–550 µM): remained ThT negative | Affinity to AS10 (dissociation constant KD) (β-wrapin AS10 [5]): heat signals were not observed | NMR signature of β-hairpin folding coupled to AS10 binding (1H–15N HSQC of 15N-AS10) (β-wrapin AS10 [3]): no change

NDUFS7(104−129) (from UniProt O75251 104-129) (peptide)
Kd (β-wrapin AS10 [6]): 4.7 µM

PAP Str1(186−194): β-strand peptide, constituent segment 186−194 of PAP(185−208) (DFIATLGKL)
Effect of added peptide on ThT time trace of PAP(248−286) (PAP(248−286)): ThT time traces exhibited additional phases of rapid growth | ThT fluorescence of peptide alone [2, 7]: concentration-dependent increase in ThT fluorescence within minutes to a few hours | Effect of added peptide on ThT time trace of SEM1(86−107) (SEM1(86−107)): ThT time traces exhibited additional phases of rapid growth

PAP Str2(200−208): β-strand peptide, constituent segment 200−208 of PAP(185−208)
Effect of added peptide on ThT time trace of PAP(248−286) (PAP(248−286)): induced increases in ThT fluorescence, albeit with somewhat longer lag-times | ThT fluorescence of peptide alone [2, 7]: do not exhibit ThT fluorescene | Effect of added peptide on ThT time trace of SEM1(86−107) (SEM1(86−107)): induced increases in ThT fluorescence, albeit with somewhat longer lag-times

PAP(248−286): PAP fragment which forms functional amyloid in semen (GIHKQKEKSRLQGGVLVNEILNHMKRATQIPSYKKLIMY) [reference compound]
AFM aggregate morphology of individual peptide [4]: aggregates of amorphous shape | ThT fluorescence of peptide alone ([2]; peptide alone 500 µM): did not exhibit ThT fluorescence

SEM1(86−107): semen amyloid peptide, fragment of semenogelin-1 (DLNALHKTTKSQRHLGGSQQLL) [reference compound]
AFM aggregate morphology of individual peptide [4]: aggregates of amorphous shape | ThT fluorescence of peptide alone ([2]; peptide alone 300 µM): did not exhibit ThT fluorescence

TTC5(335−361): synthetic peptide of predicted β-hairpin-forming amyloidogenic segment 335−361 of TTC5 (AVILGKVVFSLTTEEKVPFTFGLVDSD)
ThT [2]: + | Kd (β-wrapin AS10 [5]; read-out: Affinity to AS10 (dissociation constant KD)): 4.7 ± 0.9 µM | NMR signature of β-hairpin folding coupled to AS10 binding (1H–15N HSQC of 15N-AS10) (β-wrapin AS10 [3]): signature was observed | NMR β-hairpin (β-wrapin AS10 [3]): +

AVILGKVVFSLTTEEKVPFTFGLVDSD [TTC5(335−361)]
Kd (β-wrapin AS10 [6]): 4.7 µM

KDFIATLGKLSGLHGQDLFGIWSK [PAP(185−208)]
Kd (β-wrapin AS10 [6]): 39 µM
